Drawing on patent publication CN113549147A, this text covers 中和效价 (最大稀释倍数 (可以抑制50%以上细胞孔病变)) for 3 molecules.

First the molecules themselves.
B1: 单克隆抗体6C8 (antibody, V domains shown)
VH: EVQLQQSGPELVRPGASVRISCKASGYSFTGYYMHWVKQSHVKSLEWIGRINPHNGVPNYNQNFKDKATLTVDKSSTTAYMELHSLTSEDSAVYFCVSGSSDFDYWGRGATLTVS
VL: DIQMTQSPSSLSASLGERVTLTCRASQEIGAFLGWLQQKPDGIIKRLIYAASVLDSGVPKRFSGSRSGSDYSLTISSLESEDFADYYCLQYVSFPRTFGGGTKLEIK
B2: 单克隆抗体2B5 (antibody, V domains shown)
VH: EVHLQQSGPELVKPGSSVKISCKASGYSFTGYYIHWVKQNHLKSLTWVGRINPHNGVADYDQILRGRAALTVDKSSTTAYLEFHSLTYEDSAVYFCVSGSNDFDYWGQGTPLTVS
VL: B1 VL with T20S, G30R, A31S, I43T, A51V, V53N, V92I
B3: 单克隆抗体4D6 (antibody, V domains shown)
VH: EVQLQQSGPELVKPGASVKISCKASGYSFTGYYMHWVKQSHEKSLEWVGRINPHNGVADYNQILKGKAALTVDKSSTTAYMEFHSLTSEDSAVYYCVSGSSDFDYWGQGTPLTVS
VL: B1 VL with T20S, G30R, A31S, I43T, A51V, V53N, V92I

Where a chain is given by its changes, count along the chain named.

The target of this assay is 柯萨奇A6型病毒(CVA6)病毒颗粒抗原, 毒株TW-2007-00141 (Coxsackievirus A6 (CVA6), strain TW-2007-00141). As to the kind of experiment: cell-based or functional assay.
For B1, the 中和效价 (最大稀释倍数 (可以抑制50%以上细胞孔病变)) worked out at 4096.
As for B2, the figure is 4096; as for B3, 8192.
